Earlier results in publication PMC11497281.

Target: Asp27 (UniProt position 27, WNLPADLAWFK)

## Dihydrofolate reductase (DHFR) (Escherichia coli)
  pKa: approximately 6.5
